Experimental data from patent US20220089784A1 (University of California, published 2022).
Substitutions are numbered along the chain they refer to.

T1: BoNT/B light chain (recombinant) (Clostridium botulinum, UniProt P10844 1-441)
T1 sequence: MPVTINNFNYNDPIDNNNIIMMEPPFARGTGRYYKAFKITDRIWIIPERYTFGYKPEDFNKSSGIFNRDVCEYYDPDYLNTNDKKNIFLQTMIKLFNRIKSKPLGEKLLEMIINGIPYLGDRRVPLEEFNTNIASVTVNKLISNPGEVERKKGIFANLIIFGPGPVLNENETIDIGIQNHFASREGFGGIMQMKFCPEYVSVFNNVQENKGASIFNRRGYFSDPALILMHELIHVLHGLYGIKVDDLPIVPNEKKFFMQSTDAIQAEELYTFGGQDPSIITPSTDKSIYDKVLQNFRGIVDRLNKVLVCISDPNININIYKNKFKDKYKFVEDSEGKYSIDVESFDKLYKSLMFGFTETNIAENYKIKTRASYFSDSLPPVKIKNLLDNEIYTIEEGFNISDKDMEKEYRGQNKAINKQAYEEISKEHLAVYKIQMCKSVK

T2: BoNT/B1 (Clostridium botulinum, UniProt P10844 2-1291)
T2 sequence: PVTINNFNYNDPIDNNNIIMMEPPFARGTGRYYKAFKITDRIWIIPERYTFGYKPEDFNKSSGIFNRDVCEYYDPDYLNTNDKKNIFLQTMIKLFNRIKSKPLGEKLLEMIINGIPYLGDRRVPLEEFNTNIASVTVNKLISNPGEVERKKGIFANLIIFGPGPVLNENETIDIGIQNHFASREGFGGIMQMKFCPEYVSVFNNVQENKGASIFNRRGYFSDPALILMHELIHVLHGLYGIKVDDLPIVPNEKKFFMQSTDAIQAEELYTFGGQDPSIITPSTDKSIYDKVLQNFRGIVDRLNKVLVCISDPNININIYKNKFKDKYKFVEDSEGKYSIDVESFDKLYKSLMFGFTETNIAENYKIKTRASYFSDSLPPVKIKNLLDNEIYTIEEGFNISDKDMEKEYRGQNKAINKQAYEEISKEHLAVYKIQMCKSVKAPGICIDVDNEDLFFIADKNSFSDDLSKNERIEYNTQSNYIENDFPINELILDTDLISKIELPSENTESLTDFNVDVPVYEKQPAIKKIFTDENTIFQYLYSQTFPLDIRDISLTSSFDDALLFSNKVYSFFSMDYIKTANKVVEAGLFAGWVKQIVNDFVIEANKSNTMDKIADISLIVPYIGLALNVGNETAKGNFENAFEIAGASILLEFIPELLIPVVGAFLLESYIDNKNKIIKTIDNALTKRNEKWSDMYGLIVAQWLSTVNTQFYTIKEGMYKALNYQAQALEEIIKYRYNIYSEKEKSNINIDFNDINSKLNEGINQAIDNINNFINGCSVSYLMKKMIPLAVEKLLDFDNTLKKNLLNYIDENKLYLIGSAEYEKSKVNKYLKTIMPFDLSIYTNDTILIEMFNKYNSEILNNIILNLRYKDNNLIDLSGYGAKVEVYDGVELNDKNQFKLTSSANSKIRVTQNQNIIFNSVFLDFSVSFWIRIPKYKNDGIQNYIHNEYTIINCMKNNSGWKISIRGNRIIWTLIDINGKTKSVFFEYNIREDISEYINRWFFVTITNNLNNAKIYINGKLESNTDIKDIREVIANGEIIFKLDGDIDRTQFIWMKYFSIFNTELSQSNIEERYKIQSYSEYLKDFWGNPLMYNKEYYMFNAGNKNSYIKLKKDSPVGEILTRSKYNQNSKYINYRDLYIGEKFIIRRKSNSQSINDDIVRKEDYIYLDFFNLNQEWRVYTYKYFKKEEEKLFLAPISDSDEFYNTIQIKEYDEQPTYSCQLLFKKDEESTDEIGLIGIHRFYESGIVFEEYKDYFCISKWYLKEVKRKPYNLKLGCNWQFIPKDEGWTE

T3: BoNT/F1 (proteolytic BoNT/F) (Clostridium botulinum, UniProt A7GBG3 1-1278)
T3 sequence: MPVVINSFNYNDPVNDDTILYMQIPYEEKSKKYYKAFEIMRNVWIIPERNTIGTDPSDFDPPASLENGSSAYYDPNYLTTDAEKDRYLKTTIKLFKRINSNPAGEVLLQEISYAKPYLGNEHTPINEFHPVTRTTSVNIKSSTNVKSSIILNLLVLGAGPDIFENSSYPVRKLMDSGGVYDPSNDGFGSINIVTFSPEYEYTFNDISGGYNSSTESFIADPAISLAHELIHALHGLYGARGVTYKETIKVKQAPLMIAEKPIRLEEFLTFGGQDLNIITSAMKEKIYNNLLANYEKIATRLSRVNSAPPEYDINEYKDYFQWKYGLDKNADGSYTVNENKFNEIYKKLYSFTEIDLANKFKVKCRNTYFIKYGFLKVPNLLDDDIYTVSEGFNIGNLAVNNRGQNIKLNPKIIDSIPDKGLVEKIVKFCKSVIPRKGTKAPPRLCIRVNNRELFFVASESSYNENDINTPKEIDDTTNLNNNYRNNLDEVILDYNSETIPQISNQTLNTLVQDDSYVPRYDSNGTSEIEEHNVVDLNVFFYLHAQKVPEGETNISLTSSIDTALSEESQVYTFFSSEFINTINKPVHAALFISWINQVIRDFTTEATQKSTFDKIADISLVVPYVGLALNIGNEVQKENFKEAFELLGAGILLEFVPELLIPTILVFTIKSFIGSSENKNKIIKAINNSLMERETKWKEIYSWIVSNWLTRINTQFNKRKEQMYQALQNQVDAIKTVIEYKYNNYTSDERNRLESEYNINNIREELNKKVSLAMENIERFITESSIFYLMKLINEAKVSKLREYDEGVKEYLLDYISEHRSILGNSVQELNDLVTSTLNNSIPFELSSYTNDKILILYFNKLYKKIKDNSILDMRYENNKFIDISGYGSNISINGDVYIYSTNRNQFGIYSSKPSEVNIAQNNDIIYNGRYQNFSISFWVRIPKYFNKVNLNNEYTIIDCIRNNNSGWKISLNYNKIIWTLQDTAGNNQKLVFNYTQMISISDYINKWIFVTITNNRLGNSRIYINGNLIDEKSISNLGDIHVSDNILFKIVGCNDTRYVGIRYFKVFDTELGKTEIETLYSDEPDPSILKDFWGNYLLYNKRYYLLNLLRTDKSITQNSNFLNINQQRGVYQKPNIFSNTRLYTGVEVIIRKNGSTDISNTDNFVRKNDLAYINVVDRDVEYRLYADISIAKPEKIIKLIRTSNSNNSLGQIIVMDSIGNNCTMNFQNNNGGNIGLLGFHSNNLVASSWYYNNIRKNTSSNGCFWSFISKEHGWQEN

T4: BoNT/F 202F (Clostridium botulinum, UniProt P30996 1-1274)
T4 sequence: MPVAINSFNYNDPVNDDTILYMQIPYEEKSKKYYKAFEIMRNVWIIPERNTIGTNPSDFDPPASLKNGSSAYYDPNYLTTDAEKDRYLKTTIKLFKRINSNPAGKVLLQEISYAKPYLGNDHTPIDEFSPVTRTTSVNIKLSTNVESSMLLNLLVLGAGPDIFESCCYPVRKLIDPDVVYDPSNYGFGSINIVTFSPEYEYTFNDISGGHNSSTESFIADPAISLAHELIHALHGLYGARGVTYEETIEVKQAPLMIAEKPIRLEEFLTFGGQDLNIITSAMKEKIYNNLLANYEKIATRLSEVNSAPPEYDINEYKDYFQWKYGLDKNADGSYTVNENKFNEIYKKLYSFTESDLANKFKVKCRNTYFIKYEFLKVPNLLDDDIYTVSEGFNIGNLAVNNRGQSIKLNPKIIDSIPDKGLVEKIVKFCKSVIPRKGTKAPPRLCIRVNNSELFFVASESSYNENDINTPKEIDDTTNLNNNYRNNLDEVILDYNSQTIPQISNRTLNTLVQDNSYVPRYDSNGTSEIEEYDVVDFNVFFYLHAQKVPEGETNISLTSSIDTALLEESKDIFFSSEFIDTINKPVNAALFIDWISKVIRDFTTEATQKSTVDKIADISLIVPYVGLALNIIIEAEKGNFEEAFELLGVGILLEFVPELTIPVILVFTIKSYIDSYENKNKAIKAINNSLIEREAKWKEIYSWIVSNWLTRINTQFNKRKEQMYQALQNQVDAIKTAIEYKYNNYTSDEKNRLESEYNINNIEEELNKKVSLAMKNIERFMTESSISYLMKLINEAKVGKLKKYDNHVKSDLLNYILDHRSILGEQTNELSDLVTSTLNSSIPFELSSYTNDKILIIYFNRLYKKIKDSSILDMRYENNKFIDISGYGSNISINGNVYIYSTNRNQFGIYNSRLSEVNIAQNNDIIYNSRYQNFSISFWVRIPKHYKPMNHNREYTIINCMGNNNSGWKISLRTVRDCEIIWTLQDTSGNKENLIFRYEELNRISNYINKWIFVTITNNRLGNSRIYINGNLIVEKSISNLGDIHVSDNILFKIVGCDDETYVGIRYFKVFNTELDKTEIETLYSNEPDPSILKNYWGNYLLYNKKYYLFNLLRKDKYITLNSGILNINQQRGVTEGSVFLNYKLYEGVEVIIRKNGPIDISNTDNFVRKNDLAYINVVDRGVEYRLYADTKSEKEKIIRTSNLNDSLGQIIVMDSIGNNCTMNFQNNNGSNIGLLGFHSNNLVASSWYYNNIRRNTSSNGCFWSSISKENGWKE

B1: 19A9 scFv (scFv)
scFv: EVQLQQPGSELARPGASVKLSCKASGYTFTSYPITWVKQTTGQGLEWIGEIYPRSGNTYYNEKFKGKATLTADKSSSTAYMELRSLTSEDSAVYFCARDYYDYAGGGRGYWGQGTTLTVSSVDLKSGGSTSGSGKPGSGEGSSGSARDIVLTQSPAIMSASPGGKITITCSASSSVSYMHWFQQKPGTSPKLWIYSTSNLASGVPARFSGSGSGTSYSLTISRMEAEDAATYYCQQRSSYPYTFGGGTKLEIK
notes: mouse
B2: 19D2 scFv (scFv)
scFv: EVQLQQSGGELARPGSSVKLSCKASGYSFTGYSLTWVKQTPGQGLEWIGEIYPRSGNTYYNENFQGKATLTADESSSTAYMELRSLTSEDSAVYFCARDFYDYDGGGRGYWGQGTTLTVSSVDLKSGGSTSGSGKPGSGEGSSGSARDIVMTQTPAIMSASPGEKVTITCSASSSVSYMHWYQQKPGTSPKLWIYSTSNLASGVPARFSGSGSGTSYSLTISRMEAEDAATYYCQQRSSYPYTFGGGTKLEIK
notes: mouse
B3: 19D22 scFv (scFv)
scFv: QIQLLQSGAELVRPGTSVKMSCKAAGYPFTSYWMGWVKQRPGHGLEWIGDIYPGGPYTNYNEKFKGKATLTADTSSSTAYMQFSSLTSEDSAIYYCALYGQVGSYAMDYWGQGTSVTVSSVDLKSGGSTSGSGKPGSGEGSSGSARQIVLTQSPAIMSASPGEKVTMTCSASSSVSYMYWYQQKPGSSPRLLIYDTSNLASGVPVRFSGSGSGTSYSLTISRMEAEDAATYYCQQWSSYPPITFGAGTKLEIK
notes: mouse
B4: 39H6 scFv (scFv, V domains shown)
VH: EVQLVPSGGNLVQPGGSLRLSCAATGPIGSHWMTWVRQAPGQGLEWVANINLDGTEKFYVDSVKGRFTVSRDNRKSSVFLQMNNLRVDDTAVYYCARLQWGGYNGWLSPWGQGTLVTVSS
VL: DIVMTQSPPSLSASVGDRVSLTCRASEYIGTSLNWYQQKPGKAPKLLIYAASALHSGVPSRFSGSGSGTDFTLTISGLQPEDFATYYCQQANDLPLTFGGGTKLEIK
B5: 43D3 scFv (scFv, V domains shown)
VH: B4 VH with L4Q, P6Q
VL: B4 VL with I106N
B6: 41C2 scFv (scFv, V domains shown)
VH: B4 VH with L4Q, P6Q
VL: B4 VL with A91T
B7: 39D5.1 scFv (scFv, V domains shown)
VH: B4 VH with P6Q, N49S
VL: B4 VL
B8: 41F7 scFv (scFv, V domains shown)
VH: B4 VH
VL: B4 VL with V3L
B9: 41E2 scFv (scFv, V domains shown)
VH: B4 VH
VL: B4 VL with T5I
B10: 39A1 scFv (scFv, V domains shown)
VH: B4 VH with L4Q, P6Q
VL: B4 VL

Legend:
Assay in all cases: yeast scFv FACS
[1] = molecular target: T1, BoNT/B light chain (recombinant)
BoNT/B1 = molecular target: T2, BoNT/B1
[2] = molecular target: T3, BoNT/F1 (proteolytic BoNT/F)
BoNT/F 202F = molecular target: T4, BoNT/F 202F

Row | Binder | Kd [1] [nM] | Kd (BoNT/B1) [nM] | Kd [2] [nM] | binding result (BoNT/F 202F)
1 | B1 | 3.16 | 1.98 | – | –
2 | B2 | 5.69 | 2.95 | – | –
3 | B3 | 21.2 | 7.39 | – | –
4 | B4 | – | – | 0.526 | binds
5 | B5 | – | – | 0.333 | binds
6 | B6 | – | – | 0.355 | binds
7 | B7 | – | – | 1.77 | binds
8 | B8 | – | – | 0.566 | binds
9 | B9 | – | – | 0.584 | binds
10 | B10 | – | – | 0.588 | binds
